Molecular target: the molecule itself
Assay: SEC-MALS; 100 μl sample (individual proteins or mixture, up to 500 μM) on Superdex 200 Increase 10/300 GL in TBS

B1: liprin-α2_CC2 (residues 259–542) (domain or fragment, human, UniProt O75334 259-542, looked up)
chain: GSIDSTDETSQIVELQELLEKQNYEMAQMKERLAALSSRVGEVEQEAETARKDLIKTEEMNTKYQRDIREAMAQKEDMEERITTLEKRYLSAQRESTSIHDMNDKLENELANKEAILRQMEEKNRQLQERLELAEQKLQQTMRKAETLPEVEAELAQRIAALTKAEERHGNIEERMRHLEGQLEEKNQELQRARQREKMNEEHNKRLSDTVDRLLTESNERLQLHLKERMAALEEKNVLIQESETFRKNLEESLHDKERLAEEIEKLRSELDQLKMRTGSLIEP
notes: liprin-α2, human, GenBank AF034799.1, CC2 region, residues 259–542; Dimeric by SEC-MALS at 500 μM; source: E. coli BL21(DE3), purified (Ni-NTA, SEC)
- stoichiometry N: 2
